# Where two headings read alike, the source gives them in different places.
# B1: H1H14612N2: fully human anti-influenza A group 2 HA monoclonal antibody, HCVR/LCVR SEQ ID NOs: 18/26 (antibody, V domains shown)
# VH: EVQLVESGGGLVKPGGSLRLSCAASGFSFSGFSMNWVRQAPGKGLEWVSSISTSGNYMYYADSVKGRFTISRDNAKKSFSLQMNSLRAEDSAIYYCARGGGYNWNLFDYWGQGSLVTVSS
# VL: EIVLTQSPGTLSLSPGERATLSCRASQSLNSNYLAWYQQKPGQAPRLLIYGASSRATGIPDRFSGSGSGADFTLTISRLESEDFAVYYCQQYGNSPLTFGGGTKVEIK
# Key:
# [1] = test system: A/Wisconsin/67/2005 (H3N2)-overexpressing 3T3 cells; settings: read-out: EC50 ADCC with human donor PBMCs
# [2] = test system: A/Wisconsin/67/2005 (H3N2)-overexpressing 3T3 cells; settings: read-out: EC50 FcγRIIIA activation (ADCC-Glo reporter bioassay)
molecule,measurement,setting,value
B1,EC50,[1],176 pM
same,EC50,[2],688 pM

# Reference: patent US11780907B2, “Human antibodies to influenza hemagglutinin” (Regeneron Pharmaceuticals, Inc., priority 2018, dated 2023)
